The values that follow come from patent publication US7642239B2, “Inhibition of placenta growth factor (PLGF) mediated metastasis and/or angiogenesis” (Center for Molecular Medicine and Immunology, priority 2005, dated 2010).

Marks after values point to notes of the source that are not given here.

In data set [1] the target is T1, PlGF (Homo sapiens, UniProt P49763).
T1 construct: purchased R&D Systems
T1 sequence (P49763 19-170 isoform P49763-3 limits assumed): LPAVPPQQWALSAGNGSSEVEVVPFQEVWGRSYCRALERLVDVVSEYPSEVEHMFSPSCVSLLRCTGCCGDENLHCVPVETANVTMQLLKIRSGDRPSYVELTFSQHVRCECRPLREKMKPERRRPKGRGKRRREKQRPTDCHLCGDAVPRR
Briefly: Free peptide binding ELISA (FLAG epitope probe), PlGF-coated wells. As to conditions: free peptide; BP3, BP4, BP3scr at up to 50 μM. As to the method:
(§1) Competition assays were done with 2.5 or 25 U/ml heparin (Sigma, St. Louis, Mo.). BP1, 3, 4, and a scrambled version of BP3 (scrBP3) were synthesized with a linker followed by the FLAG epitope ([…] SEQ ID NO:5) at the C-terminus. Thirty minutes after addition of the first reagent, the second reagent was added, followed by another 30 minute incubation. Peptide binding was assessed by probing for the FLAG epitope (Prickett et al., Biotechniques 7:580-9, 1989; Castrucci et al., J. Virol. 66:4647-53, 1992). Absorbance was read at 490 nm.
On the technique in general: In an ELISA, binding on a coated surface is turned into a signal by an enzyme label.

Data set [2] concerns the target T2, recombinant human Flt-1 fusion protein (Homo sapiens, UniProt P17948).
T2 construct: purchased R & D Systems
Briefly: Free peptide binding and competition ELISA, Flt-1-coated wells. As to conditions: free peptide. As to the method: as §1

Data set [3] relates to MCF-7 human breast cancer cells. The class given is cell-based. The procedure: (§2) MTT (3-(4,5-dimethylthiazolyl-2)-2,5-diphenyltetrazolium bromide, Sigma) assays were performed under conditions of low serum (1%) to determine PlGF effects on cell viability, the toxicity of the peptides, and their effect on PlGF-mediated breast tumor cell growth (Mosmann, 1983, J Immunol Meth 65:55-63; Modrak et al., 2000, Biochem Biophys Res Commun 268:603-606). Peptide concentration was 1-2 μM, and the concentration of exogenous PlGF was 2 nM. The human breast tumor lines tested were: MDA-MB-231, MDA-MB-468 and MCF-7 (ATCC, Mannasses, Va.). Briefly, 96-well plates were seeded with 5-10×10^4 cells/ml in medium containing 1% fetal bovine serum (FBS). After 24 h, cells were treated with individual peptides at a concentration of 1-2 μM (4 binding peptides), in quadruplicate, and/or rhuPlGF at a 2-nM concentration. After the designated time points, 0.5 mg/ml MTT (5 mg/ml stock diluted 1:10 in RPMI medium with no serum) was added to the wells (Mosmann, 1983). When purple crystals were clearly visible in the cells, and the plate appeared to be fully developed, the reaction was terminated with acid alcohol (0.04M HCl in isopropanol). Absorbance of the dissolved crystals was read at 570 nm. The 24-h time point was chosen because the in vitro effects of PlGF on tumor cell migration were measurable at this time (see wound-healing assay below). These assays were also performed using medium with 10% FBS, with similar results.

The subject of data set [4] is MDA-MB-231 human breast cancer cells. Briefly: MTT tumor cell viability assay, MDA-MB-231. As to conditions: 24 h. The class given is cell-based. As to the method: as §2, with “These assays were also performed using medium with 10% FBS, with similar results.” left out
The test system of data set [5] is MDA-MB-468 xenografts. The class given is in vivo, mice. The settings on record: 200 μg/dose i.p., twice-weekly; for tumor growth inhibition: after 4 weeks. The procedure:
FIG. 5. Treatment of mice bearing MDA-MB-468 xenografts with peptides BP1 or BP3. Mice were treated every 3-4 days with 200 ug BP as described in Methods. Tumor volume was measured 2×/week. *P<0.05 at days 10, 14, 17 and 24 (change in tumor volume (ANOVA)). FIG. 5A—tumors treated with binding peptide 1. FIG. 5B—tumors treated with binding peptide 3.
Mice bearing MDA-MB-468 xenografts (average tumor volume: 0.19 cm^3) were treated with i.p. injections of individual peptides (200 μg/dose) (FIG. 5). After 4 weeks of twice-weekly treatment, tumor growth was inhibited by 49% and 58% in mice treated with BP1 (FIG. 5A) or BP3 (FIG. 5B), respectively. The effect of BP3 on tumor growth was apparent after 2 weeks of treatment (FIG. 5B), whereas the inhibitory effect of BP1 was evident after one week (FIG. 5A). The average changes in individual tumor volumes during treatment with BP1 were significant (P<0.05) at days 10, 14, 17 and 24 (FIG. 5A). Treatment with BP2 was ineffective; tumors continued to grow at almost the same rate as the mock-treated controls (results not shown). BP4 treatment produced a 20% inhibition of tumor growth (results not shown).

Data set [6] concerns PlGF-mediated angiogenesis in corneal tissues. Briefly: Mouse corneal micropocket angiogenesis assay. As to conditions: day 5; for effect on PlGF mediated angiogenesis in corneal tissues: micropellets, 100 ng PlGF with 1 μM peptide. The class given is in vivo, C57B16/J mice. The procedure:
The ability of PlGF ligands to block PlGF-mediated angiogenesis in corneal tissues in vivo is investigated. Corneal micropockets are created using a modified von Graefe cataract knife in both eyes of male 5-6-wk-old C57B16/J mice. Micropellets comprised of a sustained release formulation of polyglucuronic acid/polylactic acid containing 100 ng of PlGF or PlGF with 1 μM BP-1, BP-2, BP-3 or BP-4 are implanted into each corneal pocket. Eyes are examined by a slit-lamp biomicroscope on day 5 after pellet implantation. Vessel length and neovascularization are measured.

In data set [7] the test system is MDA-MB-468 human breast cancer cells. Briefly: MTT tumor cell viability assay, MDA-MB-468. The class given is cell-based. As to conditions: peptide 2 μM or PlGF 2 nM alone, 24 h. The procedure: as §2, with “These assays were also performed using medium with 10% FBS, with similar results.” left out
In data set [8] the test system is MDA-MB-231. Briefly: Wound-healing (motility) assay, MDA-MB-231. The class given is cell-based, human. The procedure: (§3) MCF-7, MDA-MB-23 1, and MDA-MB-468 breast tumor cell lines or HECs were seeded onto sterile glass coverslips in Petri dishes or six-well plates. When the cells were 70-80% confluent, the monolayers were scratched with a sterile plastic pipet tip.
(§4) Inhibitor concentrations were 50 μM PD98059 (PD98) (mitogen activated protein kinase-kinase 1 [MEK1] inhibitor), 5 nM Wortmannin (phosphatidyl inositol 3 kinase [PI3K] inhibitor), or human recombinant soluble Flt-1 (sFlt-1) (R&D Systems). […] Cells were pre-incubated with PD98 and Wortmannin for 15-30 min before addition of PlGF. Stained (Wright-Giemsa) and mounted coverslips were examined microscopically. Five to ten 100× fields were evaluated by counting the number of cells separated from the wound edges and which appeared to be migrating toward the center of the wound. Results are reported as the average number of cells migrating into the wound/100× field. In some cases data from separate experiments were combined to accommodate inclusion of various treatments in the tables.
(§5) Antibody concentration was 1 μg/ml. MEK1 inhibitor, PD98059 (PD98), 50 μM. PI3K inhibitor, Wortmannin, 5 nM. […] Values for antibody and inhibitor treatments were from separate experiments which included all relevant controls. […] UT denotes untreated controls. *P<0.01 (ANOVA) compared to UT; † P<0.02 (ANOVA) compared to PlGF only. ‡ P<0.001 (ANOVA) compared to PlGF only.

The test system of data set [9] is MDA-MB-468. Briefly: Wound-healing (motility) assay, MDA-MB-468. The class given is cell-based, human. As to the method: as §3, §4, §5
Data set [10] deals with MCF-7. Briefly: Wound-healing (motility) assay, MCF-7. The class given is cell-based, human. The procedure: as §3, §4, §5
Data set [11] relates to MDA-MB-231. Briefly: Matrigel cell invasion assay, MDA-MB-231. The class given is cell-based, human. As to conditions: 24 h. The procedure: (§6) Cellular invasion was determined by addition of 5×10^4cells to growth factor-reduced Matrigel invasion chambers (BD Biosciences Discovery Labware, Bedford, Mass.) (Taylor et al., 2003b; Passaniti et al., 1992, Lab Invest 67, 519-528). Additives to the Matrigel® plugs were pre-incubated together in a total volume of 100 μl PBS at RT for 10 min, after which each additive was added to the Matrigel. Growth factors (2.0 or 0.2 nM), peptide (2 μg/ml), or antibody (1 μg/ml) were added to cells in low serum (0.1% fetal bovine serum [FBS]) medium. Baseline and chemoattractant-based invasion (10% FBS) were included. The number of invading cells was determined by counting the number of cells on the bottom of the invasion chamber membrane after staining at 100× magnification after 24 h (MDA-MB-231) or 48 h (MCF-7, MDA-MB-468). The results of three to five separate experiments are presented.

Data set [12] relates to MCF-7. Briefly: Matrigel cell invasion assay, MCF-7. The class given is cell-based, human. As to conditions: PlGF 0.2 nM ± peptide 2 μg/ml; 48 h. As to the method:
as §6

In data set [13] the test system is MDA-MB-468. Briefly: Matrigel cell invasion assay, MDA-MB-468. The class given is cell-based, human. As to conditions: PlGF 0.2 nM ± peptide 2 μg/ml; 48 h. As to the method: as §6
Data set [14] has as its system microvessels in PlGF-containing Matrigel plugs. Briefly: Matrigel basement membrane plug angiogenesis assay. The class given is in vivo, nude mice. From the text: To further investigate the effect of PlGF binding peptides on endothelial cell migration and angiogenesis, Matrigel basement membrane plugs containing PlGF, BP1, BP2, or PBS were implanted s.c. on the flanks of nude mice. The number of interior microvessels in the PBS controls was 16.2±11.4/mm^2. PlGF-only implants contained 28.9±17.2/mm^2 (1.8-fold vs. mock-treated implants), and implants with PlGF and BP1 contained only 12.3±13.0 microvessels/mm^2 (P<0.02).

[15] abbreviates: PlGF 2 nM ± test agent, relative to PlGF-only value.
[16] abbreviates: growth factor PlGF 2 nM ± test agent (Flt-1 2 nM, peptide 2 μM, antibody 1 μg/ml), 18-24 h.

T2 sequence (P17948 with tags, fused parts or gaps limits assumed): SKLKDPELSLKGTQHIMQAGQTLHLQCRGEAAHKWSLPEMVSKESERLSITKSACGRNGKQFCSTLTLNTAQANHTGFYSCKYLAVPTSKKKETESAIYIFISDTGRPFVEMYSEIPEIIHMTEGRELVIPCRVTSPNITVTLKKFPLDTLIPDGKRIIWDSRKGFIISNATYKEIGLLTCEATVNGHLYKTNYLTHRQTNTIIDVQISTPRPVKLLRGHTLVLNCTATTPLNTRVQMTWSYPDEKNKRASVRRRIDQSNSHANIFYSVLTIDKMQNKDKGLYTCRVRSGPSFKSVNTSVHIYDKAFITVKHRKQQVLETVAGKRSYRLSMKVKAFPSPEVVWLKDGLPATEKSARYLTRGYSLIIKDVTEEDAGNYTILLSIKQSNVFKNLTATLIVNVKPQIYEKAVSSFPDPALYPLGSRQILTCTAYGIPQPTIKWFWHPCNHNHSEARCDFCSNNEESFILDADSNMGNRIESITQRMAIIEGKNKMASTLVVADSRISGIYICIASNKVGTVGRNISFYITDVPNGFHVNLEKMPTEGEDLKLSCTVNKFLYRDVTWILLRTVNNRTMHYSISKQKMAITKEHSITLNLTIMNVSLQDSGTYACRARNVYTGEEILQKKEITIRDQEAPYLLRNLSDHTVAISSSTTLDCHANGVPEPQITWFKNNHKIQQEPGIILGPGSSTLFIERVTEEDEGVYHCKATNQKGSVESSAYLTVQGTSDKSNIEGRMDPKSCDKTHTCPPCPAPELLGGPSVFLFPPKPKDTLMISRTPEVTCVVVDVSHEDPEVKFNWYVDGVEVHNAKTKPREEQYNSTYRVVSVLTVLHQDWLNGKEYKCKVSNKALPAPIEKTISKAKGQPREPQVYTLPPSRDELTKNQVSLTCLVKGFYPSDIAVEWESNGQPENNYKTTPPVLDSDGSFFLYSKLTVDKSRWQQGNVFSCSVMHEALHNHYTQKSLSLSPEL

Take “QEAFNRLTSRMH (listed as Homo sapiens) [BP3]”: the “binding to PlGF (in words)” value in data set [1] is reported as “did not bind detectably”. Also, in data set [2], the “binding to Flt-1 (in words)” value was “No measurable binding”. The “effect on viability after 48 h, peptide alone” value in [3] (peptide alone, 48 h, vs untreated controls) was “lost viability”. Also, in data set [4] (PlGF 2 nM + peptide 1-2 μM, 1% serum), the “effect on viability of PlGF-containing MDA-MB-231 cultures” value is given as “significant reduction in cell viability”. Also, in data set [5], the “duration of treatment after which effect on tumor growth was apparent” value was determined as 2 weeks and the tumor growth inhibition turned out to be 58%. The “effect on PlGF mediated angiogenesis in corneal tissues” value in data set [6] was “inhibits”.

As for “RMPYSEHSAPLG (listed as Homo sapiens) [BP4]”, in data set [1], the “binding to PlGF (in words)” value is listed as “did not bind detectably”. Besides, the “binding to Flt-1 (in words)” value in data set [2] is listed as “No measurable binding”. The “effect on viability of PlGF-containing MCF-7 cultures” value in [3] (PlGF 2 nM + peptide 1-2 μM, 24 h, 1% serum) was “significant reduction in cell viability”. Moreover, the tumor growth inhibition in data set [5] stood at 20%. The “effect on PlGF mediated angiogenesis in corneal tissues” value in [6] is given as “inhibits”.

B1: PlGF: recombinant human PlGF-2, placental growth factor (R&D Systems) (protein)
chain: LPAVPPQQWALSAGNGSSEVEVVPFQEVWGRSYCRALERLVDVVSEYPSEVEHMFSPSCVSLLRCTGCCGDENLHCVPVETANVTMQLLKIRSGDRPSYVELTFSQHVRCECRPLREKMKPERRRPKGRGKRRREKQRPTDCHLCGDAVPRR
B1: the “effect on cell viability / cell number, agent alone” value in data set [4] (peptide 2 μM or PlGF 2 nM alone) and in data set [7] was “increased cell numbers” each time. Further, the Relative activity in [8] (setting [15]), in data set [9] (setting [15]) and in [10] (setting [15]) was 100 each time. Also, the increase in motility in [8] (exogenous PlGF) and in [10] (exogenous PlGF) was 1.8-2.1 fold in each case. For the same molecule, the Migrating cells was 42.0 ± 13.3* cells/100× field in data set [8] (growth factor PlGF 2 nM ± test agent (Flt-1 2 nM, peptide 2 μM, antibody 1 μg/ml, PD98059 50 μM, Wortmannin 5 nM), 18-24 h); 14.7 ± 9.8 cells/100× field in [9] (setting [16]); 22.1 ± 13.4* cells/100× field in [10] (setting [16]). Also, the “effect on motility (in words)” value in [9] (exogenous PlGF) was “did not significantly affect”. For the same molecule, the “Average fold-change in the number of cells on the membrane compared to untreated controls” value in data set [11] (PlGF 0.2 nM ± peptide 2 μg/ml) was 4.0 ± 2.2 fold; in data set [12] it was 2.1 ± 0.7 fold; in data set [13], 1.8 ± 0.3 fold. For the same molecule, the values for the invading cells in data set [11] (PlGF 0.2 nM) and in [11] (PlGF 2.0 nM) were 28±12 cells and 30±13.7 cells, respectively. Further, the increased invasion in data set [11] (PlGF at both 2.0 and 0.2 nM) is given as ~3 fold. Besides, in [14] (PlGF-containing implants ± BP1, s.c., PBS controls 16.2±11.4), the interior microvessels is 28.9±17.2 /mm^2. The “microvessels, fold vs. mock-treated implants” value in [14] (PlGF-only implants) amounted to 1.8 fold. The “angiogenic response in cornea” value in data set [6] (micropellets with 100 ng PlGF) was “induces a strong angiogenic response”.
